B1: DNAp21 (EMSA) (dsDNA)
DNA 1: GAACATGTCCCAACATGTTGGGCGTCGGCTGTCGGAGGAACATGTCCCAACATGTTG
DNA 2: CAACATGTTGGGACATGTTCCTCCGACAGCCGACGCCCAACATGTTGGGACATGTTC
B2: DNAp21 (AUC) (dsDNA)
DNA 1: CTCAACATGTTGGGACATGTTCCT
DNA 2: AGGAACATGTCCCAACATGTTGAG
B3: DNAmdm2 (EMSA) (dsDNA)
DNA 1: GGTCAAGTTGGGACACGTCCGGCGTCGGCTGTCGGAGGAGCTAAGTCCTGACATGTCT
DNA 2: AGACATGTCAGGACTTAGCTCCTCCGACAGCCGACGCCGGACGTGTCCCAACTTGACC
B4: DNAmdm2 (AUC) (dsDNA)
DNA 1: B3 DNA 1
DNA 2: B3 DNA 2

Assays:
[1] = target: T1, p53_WT (human, UniProt P04637 1-393); assay: EMSA
[2] = target: T1, p53_WT; assay: AUC
[3] = target: T1, p53_WT; assay: AUC; remark: listed apart in the source

T1 sequence (P04637 whole entry): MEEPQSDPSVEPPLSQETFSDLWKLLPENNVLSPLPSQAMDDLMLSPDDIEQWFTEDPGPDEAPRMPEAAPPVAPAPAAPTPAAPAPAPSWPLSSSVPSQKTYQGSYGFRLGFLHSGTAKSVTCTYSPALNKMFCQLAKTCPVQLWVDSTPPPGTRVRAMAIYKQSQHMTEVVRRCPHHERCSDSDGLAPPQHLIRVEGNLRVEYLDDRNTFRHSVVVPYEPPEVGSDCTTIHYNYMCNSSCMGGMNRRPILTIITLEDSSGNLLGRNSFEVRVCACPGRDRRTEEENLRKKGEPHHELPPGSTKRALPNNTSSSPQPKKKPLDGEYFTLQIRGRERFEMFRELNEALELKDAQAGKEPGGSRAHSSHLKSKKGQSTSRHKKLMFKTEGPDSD

Row | Binder | binding result [1] | also measured
1 | B1 | binds | –
2 | B2 | – | binding result [2]: binds
3 | B3 | binds | –
4 | B4 | – | binding result [3]: binds

Source: PMC12557481
